Four molecules from patent US20180311291A1 (PSIOXUS THERAPEUTICS, published 2018) can be followed below.

Assay [1] has as its target T1, human VEGF-165 (human, UniProt P15692-4 27-191). Nature of the assay: direct VEGF binding ELISA and competition ELISA with bevacizumab, HRP anti-His detection; 293F supernatant and lysate.
Experimental: The cells and media were harvested from the flask and the supernatant and cells were separated by centrifuging for 10 mins, 1000 rpm. The supernatant was collected and the remaining cell pellet resuspended in 1 ml of cell media before carrying out 3 freeze-thaw cycles to lyse the cells. Post-lysis the cell debris and media was separated by a second centrifugation step and the supernatant from the lysate was collected. The supernatants or lysates were diluted 1 in 2 in 3% BSA/PBS 0.05% tween. […] Samples were added to the plates at 100 μl/well and incubated for 1 hr VEGF bound ScFv was detected using HRP-conjugated polyclonal anti-His (Abcam ab1187) followed by TMB detection.
Assay [2] has as its target T1, human VEGF-165. Nature of the assay: VEGF binding ELISA, HRP anti-His detection.
Experimental: Plates were washed between all subsequent binding steps with PBS 0.05% Tween 20. The plates were blocked for 1 hour at room temperature with 3% BSA in PBS 0.05% Tween 20.
AD293 cells were seeded in 6 well culture plates at a density of 5e5 cells per well. […] Cells were cultured for 72 hrs before the supernatants were collected from the wells and centrifuged for 5 mins, 1200 rpm to remove cell debris. The clarified supernatants were then used for either VEGF binding ELISA or Western blot analysis. […] Samples were added to the plates at 100 μl/well and assay. The detection antibody, HRP conjugated polyclonal anti-His (Abcam ab1187) was then applied for 1 hr at room temperature before HRP detection was performed with HRP substrate solution 3.3.5.5′-teramethylethylenediamine (TMB, Thermo-Fisher). 1M HCl was used for stopping the reaction and the developed colour was measured at 450 nm on a plate reader.
For another assay, the target named is T2, recombinant PDL1-Fc (UniProt Q9NZQ7 19-239).
T2 construct: also called PDL1-Fc (R&D Systems, 156-B7-100); not shown: Fc part of the bought fusion protein
Nature of the assay: direct PD-L1 binding ELISA on PDL1-Fc coated plates; 10-fold concentrated supernatant diluted 1 in 2 to 1 in 2048; anti-kappa light chain detection.

For another assay, the target named is T3, recombinant CTLA4-Fc (UniProt P16410 37-162).
T3 construct: also called CTLA4-Fc (R&D Systems, 325-CT-200); not shown: Fc part of the bought fusion protein
Nature of the assay: direct CTLA-4 binding ELISA on CTLA4-Fc coated plates; supernatant diluted 1 in 2 to 1 in 2048.

Assay [3] deals with T4, non-recombinant PD-L1 ligand expressed in a membrane environment on the surface of lung carcinoma cells (A549) (human, UniProt Q9NZQ7 19-290).
T4 construct: whole, on cells; also called cellular PD-L1; PD-L1 on IFNg stimulated A549 cells
Nature of the assay: flow cytometry on A549 cells with or without IFNgamma stimulation; 50 ul concentrated supernatant; Alexa-fluor 488 anti-human IgG detection.
Experimental: A549 cells were either stimulated with 50 ng/ml human IFNγ to promote upregulation of PD-L1 expression on the cell surface or left unstimulated. […] The cells were washed again, resuspended in PBS/1% BSA and analysed with an Attune acoustic focusing cytometer (Life Technologies).

T1 sequence (P15692 other isoform, or with tags, fused parts or gaps limits assumed): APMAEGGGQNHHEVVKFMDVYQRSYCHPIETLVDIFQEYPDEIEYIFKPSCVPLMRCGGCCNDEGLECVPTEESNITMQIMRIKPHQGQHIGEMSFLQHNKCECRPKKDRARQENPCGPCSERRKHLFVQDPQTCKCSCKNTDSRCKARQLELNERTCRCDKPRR
T4 sequence (Q9NZQ7 19-290): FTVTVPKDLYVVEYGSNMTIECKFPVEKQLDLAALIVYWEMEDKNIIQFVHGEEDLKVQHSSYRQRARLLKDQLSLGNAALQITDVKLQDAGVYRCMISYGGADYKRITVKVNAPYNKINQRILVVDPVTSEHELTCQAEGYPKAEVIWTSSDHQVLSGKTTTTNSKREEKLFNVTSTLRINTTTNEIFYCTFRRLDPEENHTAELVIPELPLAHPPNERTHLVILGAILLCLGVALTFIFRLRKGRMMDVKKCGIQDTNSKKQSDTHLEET
T3 sequence (P16410 37-162 limits assumed): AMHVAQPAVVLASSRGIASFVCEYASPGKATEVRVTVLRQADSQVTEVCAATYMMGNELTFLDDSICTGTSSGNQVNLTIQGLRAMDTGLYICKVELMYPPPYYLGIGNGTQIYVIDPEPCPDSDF
T2 sequence (Q9NZQ7 19-239 limits assumed): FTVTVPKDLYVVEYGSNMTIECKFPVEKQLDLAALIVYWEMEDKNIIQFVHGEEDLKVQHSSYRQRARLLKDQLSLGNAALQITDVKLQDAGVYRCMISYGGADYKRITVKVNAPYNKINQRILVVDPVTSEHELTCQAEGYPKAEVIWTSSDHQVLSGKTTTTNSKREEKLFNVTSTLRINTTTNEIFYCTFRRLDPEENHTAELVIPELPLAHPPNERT
Experimental for recombinant CTLA4-Fc: Culture supernatants were harvested and concentrated at 300 g for 5 minutes to remove cell debris. […] Plates were washed three times with PBS/0.05% Tween 20 then blocked with PBS/3% BSA/0.05% Tween 20.

B1: anti-VEGF ScFv with C-terminal His6 tag expressed from NG-78 infected cells (scFv)
scFv: EVQLVESGGGLVQPGGSLRLSCAASGYTFTNYGMNWVRQAPGKGLEWVGWINTYTGEPTYAADFKRRFTFSLDTSKSTAYLQMNSLRAEDTAVYYCAKYPHYYGSSHWYFDVWGQGTLVTVSSGGGGSGGGGSGGGGSDIQMTQSPSSLSASVGDRVTITCSASQDISNYLNWYQQKPGKAPKVLIYFTSSLHSGVPSRFSGSGSGTDFTLTISSLQPEDFATYYCQQYSTVPWTFGQGTKVEIKRHHHHHH
notes: also called NG-78 anti-VEGF ScFv
Turning to B1, in the assay with human VEGF-165 [1], the binding result is “binds”.

B2: anti-VEGF ScFv with C-terminal His6 tag expressed from NG-76 infected cells (scFv)
scFv: B1 scFv
notes: also called NG-76 anti-VEGF ScFv
In the case of B2, the binding result in the assay with human VEGF-165 [2] was “binds”.

B3: anti-VEGF full length IgG1 antibody secreted from NG-165 infected cells (antibody, V domains shown)
VH: EVQLVESGGGLVQPGGSLRLSCAASGYTFTNYGMNWVRQAPGKGLEWVGWINTYTGEPTYAADFKRRFTFSLDTSKSTAYLQMNSLRAEDTAVYYCAKYPHYYGSSHWYFDVWGQGTLVTVSS
VL: DIQMTQSPSSLSASVGDRVTITCSASQDISNYLNWYQQKPGKAPKVLIYFTSSLHSGVPSRFSGSGSGTDFTLTISSLQPEDFATYYCQQYSTVPWTFGQGTKVEIKR
As to B3, the binding result in the assay with recombinant PDL1-Fc and with recombinant CTLA4-Fc was “no binding” in each case.

B4: anti-VEGF full length antibody (human IgG1) secreted from NG-135 infected cells (antibody, V domains shown)
VH: B3 VH
VL: B3 VL
notes: also called SSA-Bev-PA
As to B4, in assay [3], the binding result is on record as “no binding”.
